Consider seven substances from the supplement of paper PMC5998384.

Series [1] has as its system HeLa Kyoto. The series can be described thus: solubility in G1/S (NP-40 vs SDS abundance) (log2 ratio); higher = more soluble. As to conditions: cell cycle stage: G1/S.
Series [2] deals with HeLa Kyoto. The series can be described thus: melting temperature (median over replicates), in situ; higher = more thermally stable.
Series [3] has as its system HeLa Kyoto. The series can be described thus: solubility change mitosis vs G1/S (difference of NP-40 vs SDS log2 ratios) (log2 ratio difference); higher = more soluble in mitosis.
Series [4] relates to HeLa Kyoto. The series can be described thus: thermal stability score vs G1/S (z-score of summed log2 fold changes over temperatures); higher = more thermally stable than in G1/S.
Setting [5] is: cell cycle stage: early G1 (4.5 h after nocodazole release).
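Wherever melting temperature (median over replicates), in situ is given: HeLa Kyoto cells synchronized by double thymidine or nocodazole block, proteins quantified by TMT10plex mass spectrometry, three independent biological replicates.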
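Wherever solubility change mitosis vs G1/S (difference of NP-40 vs SDS log2 ratios) is given: synchronized HeLa Kyoto cells (double thymidine block for G1/S, nocodazole release for mitosis), protein amounts in NP-40 versus SDS lysates quantified by mass spectrometry, three biological replicates.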
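Wherever solubility in G1/S (NP-40 vs SDS abundance) is given: HeLa Kyoto cells arrested at G1/S by double thymidine block, proteins quantified by TMT10plex mass spectrometry in mild NP-40 versus SDS extracts, three biological replicates.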
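Wherever thermal stability score vs G1/S (z-score of summed log2 fold changes over temperatures) is given: synchronized HeLa Kyoto cells, proteins quantified by TMT10plex mass spectrometry, three biological replicates, mitosis taken 0.5 h after nocodazole release, G1/S directly after double thymidine block.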

In the case of “MKLSRQFTVFGSAIFCVVIFSLYLMLDRGHLDYPRNPRREGSFPQGQLSMLQEKIDHLERLLAENNEIISNIRDSVINLSESVEDGPKSSQSNFSQGAGSHLLPSQLSLSVDTADCLFASQSGSHNSDVQMLDVYSLISFDNPDGGVWKQGFDITYESNEWDTEPLQVFVVPHSHNDPGWLKTFNDYFRDKTQYIFNNMVLKLKEDSRRKFIWSEISYLSKWWDIIDIQKKDAVKSLIENGQLEIVTGGWVMPDEATPHYFALIDQLIEGHQWLENNIGVKPRSGWAIDPFGHSPTMAYLLNRAGLSHMLIQRVHYAVKKHFALHKTLEFFWRQNWDLGSVTDILCHMMPFYSYDIPHTCGPDPKICCQFDFKRLPGGRFGCPWGVPPETIHPGNVQSRARMLLDQYRKKSKLFRTKVLLAPLGDDFRYCEYTEWDLQFKNYQQLFDYMNSQSKFKVKIQFGTLSDFFDALDKADETQRDKGQSMFPVLSGDFFTYADRDDHYWSGYFTSRPFYKRMDRIMESHLRAAEILYYFALRQAHKYKINKFLSSSLYTALTEARRNLGLFQHHDAITGTAKDWVVVDYGTRLFHSLMVLEKIIGNSAFLLILKDKLTYDSYSPDTFLEMDLKQKSQDSLPQKNIIRLSAEPRYLVVYNPLEQDRISLVSVYVSSPTVQVFSASGKPVEVQVSAVWDTANTISETAYEISFRAHIPPLGLKVYKILESASSNSHLADYVLYKNKVEDSGIFTIKNMINTEEGITLENSFVLLRFDQTGLMKQMMTKEDGKHHEVNVQFSWYGTTIKRDKSGAYLFLPDGNAKPYVYTTPPFVRVTHGRIYSEVTCFFDHVTHRVRLYHIQGIEGQSVEVSNIVDIRKVYNREIAMKISSDIKSQNRFYTDLNGYQIQPRMTLSKLPLQANVYPMTTMAYIQDAKHRLTLLSAQSLGVSSLNSGQIEVIMDRRLMQDDNRGLEQGIQDNKITANLFRILLEKRSAVNTEEEKKSVSYPSLLSHITSSLMNHPVIPMANKFSSPTLELQGEFSPLQSSLPCDIHLVNLRTIQSKVGNGHSNEAALILHRKGFDCRFSSKGTGLFCSTTQGKILVQKLLNKFIVESLTPSSLSLMHSPPGTQNISEINLSPMEISTFRIQLR [MAN2A1]”, the “solubility in G1/S (log2)” value in series [1] was -0.0419. The melting temperature in series [2] (cell cycle stage: G1/S) and in series [2] (cell cycle stage: mitosis) was 54.8 °C throughout. The “solubility change mitosis (log2)” value in series [3] was -0.156. Further, the thermal stability score came to 2.95 in series [4] (setting [5]) and 3.08 in series [4] (cell cycle stage: mitosis).

Take “MGQNDLMGTAEDFADQFLRVTKQYLPHVARLCLISTFLEDGIRMWFQWSEQRDYIDTTWNCGYLLASSFVFLNLLGQLTGCVLVLSRNFVQYACFGLFGIIALQTIAYSILWDLKFLMRNLALGGGLLLLLAESRSEGKSMFAGVPTMRESSPKQYMQLGGRVLLVLMFMTLLHFDASFFSIVQNIVGTALMILVAIGFKTKLAALTLVVWLFAINVYFNAFWTIPVYKPMHDFLKYDFFQTMSVIGGLLLVVALGPGGVSMDEKKKEW [SURF4]”: in series [1], the “solubility in G1/S (log2)” value came to 0.185. In addition, the melting temperature in series [2] (cell cycle stage: G1/S) was determined as 57.4 °C; in series [2] (cell cycle stage: mitosis), 56.2 °C. Besides, in series [3], the “solubility change mitosis (log2)” value was 0.00821. The thermal stability score is -0.529 in series [4] (setting [5]) and -2.05 in series [4] (cell cycle stage: mitosis).

Turning to “MNRGFSRKSHTFLPKIFFRKMSSSGAKDKPELQFPFLQDEDTVATLLECKTLFILRGLPGSGKSTLARVIVDKYRDGTKMVSADAYKITPGARGAFSEEYKRLDEDLAAYCRRRDIRILVLDDTNHERERLEQLFEMADQYQYQVVLVEPKTAWRLDCAQLKEKNQWQLSADDLKKLKPGLEKDFLPLYFGWFLTKKSSETLRKAGQVFLEELGNHKAFKKELRQFVPGDEPREKMDLVTYFGKRPPGVLHCTTKFCDYGKAPGAEEYAQQDVLKKSYSKAFTLTISALFVTPKTTGARVELSEQQLQLWPSDVDKLSPTDNLPRGSRAHITLGCAADVEAVQTGLDLLEILRQEKGGSRGEEVGELSRGKLYSLGNGRWMLTLAKNMEVRAIFTGYYGKGKPVPTQGSRKGGALQSCTII [CNP]”, the “solubility in G1/S (log2)” value in series [1] was found to be 0.107. Besides, the melting temperature in series [2] (cell cycle stage: G1/S) was 50.6 °C; in series [2] (cell cycle stage: mitosis), 50.3 °C. The “solubility change mitosis (log2)” value in series [3] is -0.00285. Also, the results for the thermal stability score in series [4] (setting [5]) and in series [4] (cell cycle stage: mitosis) were 1.08 and 0.579, respectively.

Consider “MMLRGNLKQVRIEKNPARLRALESAVGESEPAAAAAMALALAGEPAPPAPAPPEDHPDEEMGFTIDIKSFLKPGEKTYTQRCRLFVGNLPTDITEEDFKRLFERYGEPSEVFINRDRGFGFIRLESRTLAEIAKAELDGTILKSRPLRIRFATHGAALTVKNLSPVVSNELLEQAFSQFGPVEKAVVVVDDRGRATGKGFVEFAAKPPARKALERCGDGAFLLTTTPRPVIVEPMEQFDDEDGLPEKLMQKTQQYHKEREQPPRFAQPGTFEFEYASRWKALDEMEKQQREQVDRNIREAKEKLEAEMEAARHEHQLMLMRQDLMRRQEELRRLEELRNQELQKRKQIQLRHEEEHRRREEEMIRHREQEELRRQQEGFKPNYMENREQEMRMGDMGPRGAINMGDAFSPAPAGNQGPPPMMGMNMNNRATIPGPPMGPGPAMGPEGAANMGTPMMPDNGAVHNDRFPQGPPSQMGSPMGSRTGSETPQAPMSGVGPVSGGPGGFGRGSQGGNFEGPNKRRRY [PSPC1]”, for which, in series [1], the “solubility in G1/S (log2)” value stood at 0.205. Besides, the melting temperature amounted to 49.1 °C in series [2] (cell cycle stage: G1/S) and 48.7 °C in series [2] (cell cycle stage: mitosis). Also, the “solubility change mitosis (log2)” value in series [3] came out at 0.177. For the same substance, the thermal stability score in series [4] (setting [5]) was determined as 1; in series [4] (cell cycle stage: mitosis), 1.79.

“MAASMCDVFSFCVGVAGRARVSVEVRFVSSAKGKGLFATQLIRKGETIFVERPLVAAQFLWNALYRYRACDHCLRALEKAEENAQRLTGKPGQVLPHPELCTVRKDLHQNCPHCQVMYCSAECRLAATEQYHQVLCPGPSQDDPLHPLNKLQEAWRSIHYPPETASIMLMARMVATVKQAKDKDRWIRLFSQFCNKTANEEEEIVHKLLGDKFKGQLELLRRLFTEALYEEAVSQWFTPDGFRSLFALVGTNGQGIGTSSLSQWVHACDTLELKPQDREQLDAFIDQLYKDIEAATGEFLNCEGSGLFVLQSCCNHSCVPNAETSFPENNFLLHVTALEDIKPGEEICISYLDCCQRERSRHSRHKILRENYLFVCSCPKCLAEADEPNVTSEEEEEEEEEEEGEPEDAELGDEMTDV [SMYD5]”: the “solubility in G1/S (log2)” value in series [1] was -0.147. For the same substance, the figures for the melting temperature in series [2] (cell cycle stage: G1/S) and in series [2] (cell cycle stage: mitosis) were 53.4 °C and 53.1 °C, respectively. Also, the “solubility change mitosis (log2)” value in series [3] is -0.154. Moreover, the results for the thermal stability score in series [4] (setting [5]) and in series [4] (cell cycle stage: mitosis) were 1.21 and -0.768, respectively.

Consider POLE, for which the “solubility in G1/S (log2)” value in series [1] is -0.355. Also, the melting temperature is 49.5 °C in series [2] (cell cycle stage: G1/S) and 51.5 °C in series [2] (cell cycle stage: mitosis). The “solubility change mitosis (log2)” value in series [3] was -0.0472. For the same substance, the thermal stability score was determined as 0.724 in series [4] (setting [5]) and 1.31 in series [4] (cell cycle stage: mitosis).

On to “MMGLGNGRRSMKSPPLVLAALVACIIVLGFNYWIASSRSVDLQTRIMELEGRVRRAAAERGAVELKKNEFQGELEKQREQLDKIQSSHNFQLESVNKLYQDEKAVLVNNITTGERLIRVLQDQLKTLQRNYGRLQQDVLQFQKNQTNLERKFSYDLSQCINQMKEVKEQCEERIEEVTKKGNEAVASRDLSENNDQRQQLQALSEPQPRLQAAGLPHTEVPQGKGNVLGNSKSQTPAPSSEVVLDSKRQVEKEETNEIQVVNEEPQRDRLPQEPGREQVVEDRPVGGRGFGGAGELGQTPQVQAALSVSQENPEMEGPERDQLVIPDGQEEEQEAAGEGRNQQKLRGEDDYNMDENEAESETDKQAALAGNDRNIDVFNVEDQKRDTINLLDQREKRNHTL [GOLM1]”, for which, in series [1], the “solubility in G1/S (log2)” value is -0.0257. Besides, the melting temperature in series [2] (cell cycle stage: G1/S) was 55.9 °C; in series [2] (cell cycle stage: mitosis), 59.3 °C. The “solubility change mitosis (log2)” value in series [3] was 0.556. Further, the thermal stability score in series [4] (setting [5]) was -2.29; in series [4] (cell cycle stage: mitosis), -1.82.
